Laboratory results published in the nanobody polyreactivity screen of Harvey et al. (2022).

Assay: yeast display, Sf9 membrane polyspecificity reagent, FACS + sequencing; frameworks hold sequencing errors
Summary of the method: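 Genes from sorted yeast were amplified by colony PCR, read by MiSeq 2 × 250 sequencing and filtered on CDR length. These cells carried a synthetic nanobody library in Saccharomyces cerevisiae BJ5465 and were sorted by FACS into low and high (top ~1%) gates on anti-HA and streptavidin fluorescence. Polyreactivity is labelled according to the gate of origin.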

Sequence	polyreactivity (PSR sort gate)
QVQLVESGGGLVQAGGSLRLSCAPSGRIFYSNDMGWYRQAPGKERELVAAIRDSAGSTRYADSVKGRFTISRVNAKNTVYLQMNSLKPEDTAVFYGHKDYVSIYFEYLDDYWGQGTQVTVSS	low polyreactivity
QVQLVESGGGLVQAGGSLRLSCAASGFTFDYYAMGWYRQAPGKERELVAAITSDGSTYYADSVKGRFTISRDNAKNTVYLQMNSLKPEDTAVYYCAADGISLYATAYDYWGQGTQVTVSS	low polyreactivity
QVQLVESGGGLVQAGGSLRLSCAASGSIFTYNAMGWYRQAPGKERELVAAITRSGGRTYYADSVKGRFTISRDTAKNTVYLQMNSLKPEATAVYYCNTLRVGWGQGTQVTVSS	high polyreactivity
QVQLVESGGGLVQAGGSLRLSCAASGSIFESNAMGWYRPAPGKEREFVAAIDQNDGSTNYADSVKGRFTISRDHAKNTVYLQMNSLKPEDTAVYYCAKYWGYLGYYEFDYWGQGTQVTVSS	low polyreactivity
QVQLVESGGGLVQAGGSLRISCAASGSTFYRYPMAWYRQAPGKERELVAAISGSGGRTYYADSVKGRFTISRDNAKNTVYLQMNSLKPEYTAVYYCATRFGQRSDYWGQGTQVTVSS	high polyreactivity
QVQLVESGGGLVQAGGSLRLSCAASGSIFRRYAMGGYRQAPGKERELVAAITSGDTTKYADSVKGRFTISRDNAKNTVYLQMNSLKPEDTAVYYCNKKGWPRFVHGFLRRDDYWGQGTQVTVSS	low polyreactivity
QVQLVESGGGLVQAGGSLRLSCAACGSIFLSNSMGWYRQAPGKERELVADIDWTGGDTYYADSVKGRFTISRDNAMNTVYLQMNSLKPEDTAFYYCAADYGYRNLLTEYGYWVQGTQVTVSS	low polyreactivity
QDQLVESGGGLVQAGGSLRLICAASGNTLGYYAMVCYRQATGKERELVATISDDGTTYYADSVKGLFTISRDNAKNSVYLQMNSLKPEDTAVYYCATDGSAQYSMDYWGQGTQVTVSS	low polyreactivity
QVQLVESGGGLVQAGGSLRLSCAASGSTFSFYAMGWYRQAPGKERELVAAITWTTGSTYADSVKGRFTISRDNAKNTVYLQMNSLKPEDTAVYYCAAKKFRRSRDSYYWGPGTQVTVSS	high polyreactivity
QVQLVESGGGLVQAGGSLRLSCAASGFTFPYYAMGWYRQAPGKEMELVAVISGSGTRTNYADSVKGRFTISRDNAKNTVYLQMNSLKPEDTEVYYCAAYYTYLHYIYDYWGQGTQVTVSS	high polyreactivity
QVQLVESGGGLVQAGGSLRLSCAASGRIFYGYAMGWYRQAPGKERELVAAISSSGGSTYYADSVKGRFTISRDNAKNTVYLQMNSLKPEDTAVYYCNAQRYRPGYWYDYWGQGTQVTVSS	high polyreactivity
QVQLVESGGGLVQAGGSLRLSCAASGFIFANAIGWYRQAPGKEMELVAAITWSGDSTYYADSVKGRFTISRDNAKNTVYLQMNSLKPEDTAVYYCAAVVTNAYRYDYWGQGTQVTVSS	low polyreactivity
QVQLVESGGGLVQAGGSLRLSCAASGFTFKYYDMGWYRQAPGKERELVAAIDTSGGNTYYADSVKGRFTISRDNAKNTVYLQMNSLKPEDTAVYYCAATVPYYHDDYWGQGTQVTVSS	low polyreactivity
QVQLVESGGGIVQAGGSLRLSCAASGSTFTLYAMGWYRQAPGQERELVAAITSDDSTYYADSVKGRFTISRDNAKNTVYLQMNSLKPEDTAVYYCAADVYYGDYEMDYWGQGTQVTVSS	low polyreactivity
QVQLVESGGGLVQAGGSLRLSCAASGSTFYVYDMGWYRQAPGKERELVADISWSGGSTYADSVKGRFTISRDNAKNTVYLQMNSLKPEDTAVYYCAATSRPRPYHGGRMYYWGQGTQVTVSS	high polyreactivity
QVQLVESGGGLDQAGGSLRLSCAASGSIFYRNAIGWYRQAPGKDREFVAAITLRGGSTYYADSVKGRFTISRDNAKNTVYLQMNSLKPEDTAVYYCAADLLLYSSQDNDYWGQGTQVTVSS	low polyreactivity

Sequence	polyreactivity (PSR sort gate)
QVQLVESGGGLVQAGGSLRLSCAASGRIFSGNAMGWYRQAPGKERELVAAISRGGSTDYADSVKGRFTISRDNAKNTVYLQMNSLKPEDTAVYYCAARVNGKRRRYDYWGQGTQVTVSS	high polyreactivity
QVQLVESGGGLVQAGGSLRLSCAASGRTFKPYAMGWYRQAPGIERELVARISGSGGSTYYADSVKGRFTISRDNGKNTVYLQLNSLKPEDTAVYYCATTPYYWFDYWGQGTQVTVSS	low polyreactivity
QVQLVESGGGLVQAGGSLRLSCAASGSTIRSNAMGWYRQEPGKERELVAAISRTGGRTYYADSVKGRFTISRDNAKNTVYLQMNSLKPEDTAVYYCARPDKGLEYSENYYWGQGTQVTVSS	high polyreactivity
QVQLVESGGGLVQAGGSLRLSCSASGITFWYNAMEWYRQAPGKERELVAAISRSAGSTYYADSVKGRFTISRDNAKNTVYLQMNSLKPEDTAVYYCAAKTPGRYYYWGQGTQVTVSS	high polyreactivity
QVQLVESGGGLVQAGGSLRLSCAASGFTFKHYTMGWYRQAPGKERELVAAISYSGGSTYYADSVKGRFTISRDNAKNTVYLQMNSLKPEDTAVYYCAADAVKASVSYIVPYAAYDYWGQGTQVTVSS	low polyreactivity
QVQLVESGGGLVQAGGSLRLSCAASGFIFYQYAMGWYRQAPGKERELVAAISRSGGSTYYADSVKGRFTISRDNAKNTVYLQMNSLKPEDTAVYYCNAVYRSIRPRYDYWGQGTQVTVSS	high polyreactivity
QVQLVESGGGLVQAGGSLRLSCAASGSIFYTYAKGWYRQAPGKQRELVAGISWSGSDTYYADSVKGRFTISRDNAKNTVYLQMNSLKPEDTAVYYCNAETSTRKNFGYDYWGQGTQVTVSS	low polyreactivity
QVQLVESGGGLVQAGGSLRLSCAASGRISIWYDMGWYIQAPGKEREFVASITSGGSTYADSVKGRFTISRDNAKNTVYLQMNSLKPEDTAVYYCAADEAPYVPSEQRHSRFSHWGQGTQVTVSS	low polyreactivity
QVQLVESGGGLVQAGGSLRLSCAASGSIFWANAMGWYRQAPGKERELVAAISSSGGGTYYADSVKGRFTISRDNAKNTVYLQMNSLKPVDTAVYYCNKLRLDYYEQGDYWGQGSQVTVSS	high polyreactivity
QVQLGESGGGLLQAGGSLRLSCAASGRSFSVNFMGWYRQAPGKDTELVAAIDTSGGSTYYADSVKGRFTISRDNAKNTVYLQMNCLNPEHTAVYVCASGFYGYRSSCYWGQGTQVTVSS	low polyreactivity
QVQLVESGGGLVQAGGSLRLSCAASGFIFSHNAMGWYRQAPGKERELVAAIDYIDGSTYYADSVKGRFTISRDNAKNTVYLQMNSLKPEDTAVYYCAADGLFYWWHYGYWGQGTQVTVSS	low polyreactivity
QVHLVESGGGLVQAGGSLRLSSAASGRIFDRYAMGWYRQAPGKERELVAAITSRADRTYYADSLKGRFTISRDNAKNTVYLQMNSLKPEDTAVYYCNTDKKYRHRYGGILDYWGQGTEVTVSS	high polyreactivity
QVQLVESGGGLVQAGGSLRLSCAASGFIFTDYAMGWYRQAPGKEREFVAAIDWSGGNTYYADSVKGRFTISRDNAKNTVYLLMNSLKPEDTAVYYCADSGSAREYDYWGQGTQVTVSS	low polyreactivity
QVQLVESGGGLVQAGGSLRLSCAPSGSTFIPNPMGWYRQAPGKERELVAAISRRGGSTNYADSVKGRFTISRDNAKNTVYLQMNSLKPEDTALYYCAAVSPRRYRYDYWGQGPQVTVSS	low polyreactivity
QVQLVESGGGLVQAGGSLRLSCAASGRIFVRYAMGWYRQAPGKEREWVAVSTTGGARTRDADSVKGRFTISRDNAKNSVYLQMNSLKPEDTGVYYCAAQTYSQRWYDYWGQGTQVTVSS	high polyreactivity
HVQLQEIGGGLVQAGDSQRLSCAASGNIFRFTDMGRYRQAPGKERELVAAINAGSTTYYAASVKGRFTISRDNAKNTVYLQMNSLKPEDTAVYYCNALYSYKYGRKYDYWGQGTQVTVSS	high polyreactivity
